According to the nanobody polyreactivity screen of Harvey et al. (2022):

test: yeast display, Sf9 membrane polyspecificity reagent, FACS + sequencing; frameworks hold sequencing errors
Summary of the method: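 A synthetic nanobody library was expressed on Saccharomyces cerevisiae BJ5465 by galactose induction for 36–48 hours. The library was stained for 1 hour at 4 °C with 10% biotinylated, detergent-solubilized Sf9 membrane reagent and enriched with streptavidin microbeads before FACS. Low and high (top ~1%) gates were set on anti-HA fluorescence for expression and streptavidin fluorescence for reagent binding, and each polyreactivity label reflects the gate of origin.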

Sequence	polyreactivity (PSR sort gate)
QVQLVESGGGLVQAGGSLRLSCAASGRIFTGNAMGWSRQAPGKERELVAAISASGSSSYYADSVKGRFTISRDNAKNTVYLQMNSLNPEDTAVYYCAAEGWYCYYYWGQGTQVTVSS	high polyreactivity
QVQLVESGGGLVQAGGSLRLSCAASGRIFTGNAMGWYRQAPGKERELVAAITGRGGNTYYADSVKGRFTISRDNAKNTVYLQMNSLKPEDTAVYYCAKVFFHTPIVPEFEYWGQGTQVTVSS	low polyreactivity
QVQLVESGGGLVQAGGSLRLSCAASGRIFTGNAMGWYRQAPGKERELVASITYNGGRTYYADSVKGRFTISRDKAKNTVYLPMNRLKPEDTAVYYCNAGDYGFGYEYWGQGTQVTVSS	low polyreactivity
QVQLVESGGGLVQAGGSLRLSCAASGRIFTGYAMGWYRQAPGKEREFVAAITGRGGSTYYADSVKGRFTISRDNAKNTVYLLMNSLKPEDTAVYYCNALPRSPWYYRGDYWGQGTQVTVSS	high polyreactivity
QVQLVESGGGLVQAGGSLRLSCAASGRIFTHNAMGWYIQAPGKERELVAAITSGGRTTYADSVKGRFTISRENAKNTVYLQMISLKPVDTAVYYCAADDLLDYDYWGQGTQVTVSS	low polyreactivity
QVQLVESGGGLVQAGGSLRLSCAASGRIFTIYAMGWSRQAPGKERELVATISRRGGSTYYADSVKGRFTISRDNAKNTVYLKMNSLKPEDSAVYYFAADSVITWWAYYYWGQGTQVTVSS	high polyreactivity
QVQLVESGGGLVQAGGSLRLSCAASGRIFTIYAMGWYRQAPGKERELVARITRGTSTYADSVKGRFTISRDNAKNTVYLQMNSLKPEDTAVYYCAADPTDTSLGDYWGQGTQVTVSS	high polyreactivity
QVQLVESGGGLVQAGGSLRLSCAASGRIFTLYAMGWYRQAPGKERELVAAISYGGGGTYYADSVKGRFTISRDNAKNTVYLQMNRLKPEDSAVYFCATDDPLSQINEQGMDYWGQGTQVTVSS	low polyreactivity
QVQLVESGGGLVQAGGSLRLSCAASGRIFTNNAMGWYRQAPGKERELVAAITRGGTTNYADSVKGRFTISRDNAKNTVYLHMNSLKPEDTAVYFCARAGAHPWWSRSTMYYWGQGTQVTVSS	low polyreactivity
QVQLVESGGGLVQAGGSLRLSCAASGRIFTNYAMGWYREAPGKERELVAAINYSGGNTYYADSVKGRFTISRDNAKNTVYLQMNSLIPEDTAVYYCNAPILPRYRRYDYWGQGTQVTVSS	low polyreactivity
QVQLVESGGGLVQAGGSLRLSCAASGRIFTNYAMGWYRQAPGKERELVAAINWDGGSTYYADSVKGRFTISRDNAKNTVYLQMNSLKPEDTAVYYCAAQGGLSEFDYWGQGTQVTVSS	low polyreactivity
QVQLVESGGGLVQAGGSLRLSCAASGRIFTQNAMGWYRQAPGKERELVAAINYSGGRTYYADSVKGRFTISRDNAKNTVYLQMNSLKPEDTAVYYCAAEWYTRFYISYGYWGQGTQVTVSS	high polyreactivity
QVQLVESGGGLVQAGGSLRLSCAASGRIFTRYAMGWYRHAPGKERELVAAITASGGRTYYADSVKGRFTISRDNAKNTVYLQMNSLKPEDTAVYYCAATYHRYYETQDSYDYWGQGTQVTVSS	high polyreactivity
QVQLVESGGGLVQAGGSLRLSCAASGRIFTRYAMGWYRQAPGKERELVAAIDRGGSTYYADSVKGRFTISRDNAKNTVYLQMNSLKPEDTAVYYCAARIKAWGLEFYYWGQGTQVTVSS	high polyreactivity
QVQLVESGGGLVQAGGSLRLSCAASGRIFTRYAMGWYRQAPGKERELVAAISRGGARTYYADSVKGRFTISRDNAKNTVYLQMNSLKPEDTAVYYCARQRVKTDRISGYDYWGQGTQVTVSS	high polyreactivity
QVQLVESGGGLVQAGGSLRLSCAASGRIFTRYAMGWYRQAPGKERELVAVITRSGGSTYYADSVKGRFTISRDNAKNTVYLQMTSLKPEDTAVYYCAAKYYGEMYYWGQGTQVTVSS	low polyreactivity
QVQLVESGGGLVQAGGSLRLSCAASGRIFTRYVMGWYRPAPGKERELVAGINSGGRTNYADSVKGRFTISRDNAKNTVYLQMNSLKQVDTAVYYCAAGKGRPVGGRAYYYWGHGTQVTVSS	high polyreactivity
QVQLVESGGGLVQAGGSLRLSCAASGRIFTSNAMGWYRQAPGKERELVASITSSSSTNYADSVKGRFTLSRDNAKNTVYLQMNSLKPEDTAVYYCAAERVWPYGHDYWGQGTQVTVSS	low polyreactivity
QVQLVESGGGLVQAGGSLRLSCAASGRIFTSYAMGWYRQAPGKERELVASITSGGRTDYADSVKGRFTISRDNAKNTVYVQMNSLKPEDTAVYYCNVGTRRALYYPYRPGRYDYWGQGTQVTVSS	low polyreactivity
QVQLVESGGGLVQAGGSLRLSCAASGRIFTSYVMGWYRQAPGKERELVAAITRTGGSTYYADSVKGRFTISRDNAKNTVYLQMNSLKPEDTAVYYCNALTRRQKGGEGGGYWGQGTQVTVSS	high polyreactivity
QVQLVESGGGLVQAGGSLRLSCAASGRIFTTNVMGWYRQAPGKERELVAAISWSGGNTYYADSVKGRFTISRDNAKNTVYLQMNSLKPEDTAVYYCNAVGTIREGDSWGQGTQVTVSS	low polyreactivity
QVQLVESGGGLVQAGGSLRLSCAASGRIFTYNAMGWYRQAPGKERELVASINLDGDSTYYADSVKGRFTISRDNAKKTVYLQMNSLKTEETAVYYCAVPGATSYFAYDSWGQGTQVTVSS	low polyreactivity

Sequence	polyreactivity (PSR sort gate)
QVQLVESGGGLVQAGGSLRLSCAASGRIFTYNTMGWYRQAPGKERELVAAIRTGGSTNYADSVKGRFTISRDNAKNTVYLQMNSLKPEDTAVYYCNTVRHSSSVYWYDYWGQGTQVTVSS	low polyreactivity
QVQLVESGGGLVQAGGSLRLSCAASGRIFTYNTMGWYRQAPGKERELVAAISGSGGITYYADSVKGRFTISRDNAKNTVYLQMNSLKPEDTAVYYCNTVPLYVSRYPYDYWGQGTQVTVSS	low polyreactivity
QVQLVESGGGLVQAGGSLRLSCAASGRIFTYNTMGWYRQAPGKERELVAAITSGGRTYYADSVKGRFTISRDNAKNTVYLQMNSLKPEDTAVYYCAAGRSRFVTRYDYWGQGTQVTVSS	high polyreactivity
QVQLVESGGGLVQAGGSLRLSCAASGRIFTYNTMGWYRQSPGKEREFVASITYSGSSTYYADSVKGRFTISRDNAKNTVYLQMNSLKPEDTAVYYCATRYGYSDGDYWGHGTQVTVSS	low polyreactivity
QVQLVESGGGLVQAGGSLRLSCAASGRIFTYYAMGWFRQAPGKERELVAAISFRGSSTYYADSVKGRVTLSRDNAKNTVYLQRNSLKPEDTAVYYCAAERIARPTFDYWGQGTQVTVSS	low polyreactivity
QVQLVESGGGLVQAGGSLRLSCAASGRIFTYYGMGWYRQAPGKERELVAAISWSGGSTYYADSVKGRFTISRDNAKNTVYLQMNSLKPEDTAVYYCNAASRYGGDYWGQGTQVTVSS	high polyreactivity
QVQLVESGGGLVQAGGSLRLSCAASGRIFTYYTMGGYRQAPGKERELVATINSSGGSTYYADSVKGRFTISRDNAKNTVYLQMNRLKPEDTAVYYCNDAYKSQVRYRRYNYWGQGTQVTVSS	high polyreactivity
QVQLVESGGGLVQAGGSLRLSCAASGRIFVDNAMGWYRQAPGKERELVAAITRGGSTYADSVKGRFTISRDNAQNTVYLQMISLKPEDTAVYYCAADLWSVPFTVYTFGIFYYWGQGTQVTVSS	low polyreactivity
QVQLVESGGGLVQAGGSLRLSCAASGRIFVDYAMGWYRQAPGKERELVAAITRSGDRTYYADSVKGRFTISRDNAKNTVYLQMNSLKPEDTAVYYCATDYPGYDWGQGTQVTVSS	low polyreactivity
QVQLVESGGGLVQAGGSLRLSCAASGRIFVEYAMGWYRQAPGKERELVAAINSGGSTNYADSVKGRFTISRDNAKNTVYLQMNSLKPEDTAVYYCNKDTLVYGYVQDYEYWGQGTQVTVSS	low polyreactivity
QVQLVESGGGLVQAGGSLRLSCAASGRIFVGNTMGWYRQAPGKDRELVAAISWRGRTSYADSVKGRFTISRDNAKNTVYLQMNSLKPEDTAVYYCNAEHAGASRYYYIANWMDYWGQGTQVTVSS	low polyreactivity
QVQLVESGGGLVQAGGSLRLSCAASGRIFVGYAMGLYRQAPGKEREFVATITFSGSSTYYADSVKGRFTISRDNAKNTVYIQMNSLKPEDTAVYYCAVTLEDYTYVYWGQGTQVTVSS	low polyreactivity
QVQLVESGGGLVQAGGSLRLSCAASGRIFVGYAMGWYRQAPGKERELVAAINRSGSSKYYADSVKGRFTISRDNAKNTVYLQMNSLKTEDTAVYYCNARSGNRYGPRYDYWGQGTQVTVSS	high polyreactivity
QVQLVESGGGLVQAGGSLRLSCAASGRIFVGYAMGWYRQAPGKERELVAAINRSGSSTYYADSVKGRFTISRDNAKNTVYLQMNSLKPEDSAVYYCNARAPSYYRYRASSAYDYWGQGTQVTVSS	high polyreactivity
QVQLVESGGGLVQAGGSLRLSCAASGRIFVGYAMGWYRQAPGKERELVAAISSRGGSTYYADSVKGRFTISRDNAKNTVYLQMNSLKPEDTAVYYCAKVRTYRYYDGGDYWGQGTQVTVSS	high polyreactivity
QVQLVESGGGLVQAGGSLRLSCAASGRIFVHNSMGWYRQAPGKERELVAAISSCGRTYYADSVKGRFTISRDNAKNTVYFQMNSLKPEDTAVYYCNAGRTNRAGRRWPMDYWGQGTHVTVSS	high polyreactivity
QVQLVESGGGLVQAGGSLRLSCAASGRIFVHYAMGWYRQAPGKERELVAAITSGSSTNYADSVKGRFTISRDNAKNTVYLQMNSLKPEDTAVYYCAADYSVHLVRDRWFDYWGQGTQVTVSS	low polyreactivity
QVQLVESGGGLVQAGGSLRLSCAASGRIFVINAMGWYRQAPGKERELVADITWSGGSTYADSVKGRFTISRDNAKNTVYLLMNSLNPADTAVSYCAAVYLRVDRYLQVYRYDYWGQGTQVTVSS	high polyreactivity
QVQLVESGGGLVQAGGSLRLSCAASGRIFVKNAMGWYRQAPGKERELVAAISSSSGSTYYADSVKGRFTISRDNAKNTVYLQMNSLKPEDTAVYYCATVRWYYSRPRPTTAYGYWGQGTQVNVSS	high polyreactivity
QVQLVESGGGLVQAGGSLRLSCAASGRIFVKYAMGWYRQAPGKERELVAGISRSVGSTYYADSVKGRFTISRDNAKNTVYLQMNSLKPEDTAVYYCATRQKRVGYYYWGQGTQVTVSS	high polyreactivity
QVQLVESGGGLVQAGGSLRLSCAASGRIFVNNAKGWYRPAPGKERELVAAISRGASTYYADSVKGRFTISRDNAKNTVYLQLNSLKAEDTAVYYGNARTDAYGASEMGYWGQGTQVTVSS	high polyreactivity
